A short description of this data set: label from the status in PepcDB records.
“MSLTTYDTQPSTLIRNAAAIMTGGRGTADDPSRVPGPDIRIVGDTIDAIGALAPRPGETIVDATDCVIYPAWVNTHHHLFQSLLKGEPAGLDATLTPWLAATPYRFRALFDERRFRLAARIGLIELARSGCATVADHNYVYYPGMPFDSSAILFEEAEKLGLRFVLLRGGATQTRQLEADLPTALRPETLDAYVADIERLAARYHDASPRAMRRVVMAPTTVLYSISPREMRETAAVARRLGLRMHSHLSETVGYQDSAYSMYGKSPVAFCGEHDWLGSDVWYAHLVKVDADEIALLAQTGTGVAHCPQSNGRLGSGICPVREMADAGVPVSIGVDGAASNEAADMISEVHMTWLAQRARLGMLAQPAYRGGSFEGGAGAASIAEVIHWGTAGGARVMGLDEVGKVAVGYAADIAVYRLDDPRYFGLHDPAIGPVASGGRPSVMALFSAGKRVVVDDLIEGVDIKELGGEARRVVRELLREVVVEGHHHHHH”: the protein production entry is recorded as “not failed”.

Consider “MGCICFKSWRRSSSSPSITSTVIDDLENVREYDADDDGGHYPLIFREFSLEQLRIATDGFSAGNIVSEHNDSVPNIVYKGKLGDGRRIAVKRFQRLSWPDPFEFINEAQAVGRLRSEHMANLIGCCCDDNERLLVAEYMPNGTLAKHLFHWEKRPMKWEMRLKVALHTARALEYCNDKGIDLYHDLNPYRIMFDKTGIPKLSCFGLMKNSHEGKIYSTNLAFAPPEYLRLGTVIAESVTFSFGTLLLDLMSGRHIPPNHALDLFRGKNYLVLMDSALDGQFSDEDRTELIHVASRCFKTEPEERPSIKFLKATLSRLQKRAKLCPINVKRPMSPPSKNLPEKTKPATESLKLTPFGDACSRADLSSIHELLEKLGYEEDNGVGNEFSFQMWTGEMQENMDYKKHGDAAFLAKDFDTAIEFYTEFMTGAPTVSPTVLARRCLCYLMTEMFSEALSDAMQAQVASPEWPIPLYLQAACLFKLEMEAEAKEALRHGSALEAY”, for which the protein production entry is on record as “failed”.

In the case of “MEKCDFYHIIVLSLNFPGYLKMEYGSTKMEERLSRSPGGKLALWAFYTWCGYFVWAMARYIWVMSRIPDAPVSGFESDLGSTAGKWLGALVGFLFMALVGALLGSIAWYTRPRPARSRRYE”, the protein production entry is listed as “failed”.

Consider “MSADTSSLDFHPLRADLYQELHSRPFQIIPPHARVTQIAVITTPEQRTRQFEHLQKLHRLLGEPWPEQEVSCYEQSFGKLRIRREVHMEFTSYTFINLADSDADPFAETGLSLLPDGWLAQLEGTVVGAFHVEVRSSSEDARSELAFMRKHFEGMRLVGSSPQEGAARVLGSFQLHSDNFGRFMVLNHHMSNSQLGRLIQRLMEIETYRLMSLLALPVAREITPSLNDMDQQLARITQSLADNESLDEQQILAELTNIAARIEAYRAHTTFRFSATRAYHRLVLTRLEELREDEVSGHLTITEFMTRRLTPAVKTCEAVNERLEDLSRRVDRASEMMRTRVELAIQSQNQQLLSSMDRRSRIQLMMQHTVEGFSVVAISYYLIGLLKLGLDALTGTGLTINEPLVTGLAIPVVMVLVFIGIRTIHHRFIRMARRQ”, for which the protein production entry is listed as “failed”.

As for “MANIVFIATSLDGYIADKRGKLDWLHSVPNPNNVDTGFVALMERVDGLVMGRNTLDMVLSFDCDWPYSKPVFVLSNTMTEVPQGYEDKVFLVKGKLVDIIADLNAKGFNELYIDGGVTIQNFLKEDLIDEMVITRFPILLGGGVPLFGELESSLSFNVIKSEVVLDSLTQTTYHRKRA”, the protein production result was “not failed”.

Take “MDLNRMGKDEYYVQITVDGKEVHSKADNGQKYKDYEYKLTGFDKDGKEKELEFTAQKNLRKEAFLRVYHSDKKGVSAWEEVKKDELPAKVKEKLGVKLEHHHHHH”: the protein production result is “not failed”.

On to “MKKLNTNKLTEEQVNLFKNNLVYLATVDADGNPQVGPKGSMTVLDPSHLQYLEKTKGEAYENIKRGSKVALVAADVPSHTAVRVLATAEVHEDDDYAKKVLAKTEFPNAFVVNLNIEEVFA”, for which the protein production entry was “not failed”.

On to “MAVRVCCHAPPGVSNHLFTFCAGNLTTGFSGGSVTSQKGGAAGLPTCSRRCPRGCLPGSDPLPRHPRRYAPPVTPPVTPPTTPAPRSRARMLELVFPKDTNYHGTAFGGWVLALMDKAASVAAVRHAGGNVVTARMDGVDFHVPIRVGDAVALDARVIRVGRSSMTIRVDVYRENMASGEQQLATGGLFTFVALGEDGKPRPVPPLPEGSTDSEQPDYEARPLEHHHHHH”, for which the protein production entry was “failed”.

“MSLDMSPVQGKLDGRIRAQNPEEFLERLSQEYHFQWFVYNDTLYVSPSSEHTSARIEVSPDAVDDLQTALTDVGLLDKRFGWGSLPDEGVVLVRGPAKYVEFVRDYSKKVEKPDEKADKQDVVVLPLKYANAADRTIRYRDQQLVVAGVASILQELLESRSRGESIDSVNLLPGQGSSVANSTGVAAAGLPYNLGSNGIDTGALQQGIDRVLNFNSKKTAKGHASGKANIRVSADVRNNSVLIYDLPERKAMYQKLVKELDVPRNLIEIDAVILDIDRNELAELSSRWNFNAGSVGGGANLFDAGTSSTLFLQNASKFSAELHALEGNGSASVIGNPSILTLENQPAVIDLSRTEYLTATSERAADILPITAGTSLQVIPRSLDNDGKPQVQMIVDIEDGQIDVSTINDTQPSVRRGNVSTQAVIAEHGSLVIGGFHGLEANDRIHKIPLLGDIPYIGKLLFQSRSRELSQRERLFILTPRLIGDQVNPARYVQNGNPHDVDDQMKKIKERRDGGELPTRGDIQKVFTQMIDGAAPEGLRAGQTLPFETDSLCDPGEGLTLDGQRSQWFVKKDWGVAVVVARNNTDKPVRIDESRCGGRWVIGVAAWPHAWLQPGEESEVYIAVRQPQISKMAKESRPSLLRGAKP”: the protein production entry is “failed”.

On to “MNIETLMIKNPPILSKEDRLGSAFKKINEGGIGRIIVANEKIEGLLTTRDLLSTVESYCKDSCSQGDLYHISTTPIIDYMTPNPVTVYNTSDEFTAINIMVTRNFGSLPVVDINDKPVGIVTEREFLLLYKDLDEIFPVKVFMSTKVQTIYKEVRLDQAVKLMLRRGFRRLPVIDDDNKVVGIVTVVNAIKQLAKAVDKLDPDYFYGKVVKDVMVTNLVTIDELASVNRAAAEMIVKRIGSLLILNKDNTIRGIITERDLLIALHHILVMEKFKEKL”, for which the protein production result is “not failed”.

With “MGHHHHHHSHMASLTVKAYLLGKEDAAREIRRFSFCCSPEPEAEAEAAAGPGPCERLLSRVAALFPALRPGGFQAHYRDEDGDLVAFSSDEELTMAMSYVKDDIFRIYIKEKKECRRDHRPPCAQEAPRNMVHP”, the protein production result is recorded as “failed”.

Regarding “MAEKKKKNKKQLSSFSILFIILIVLGIVTVLLNGQPFTPREIDGKMVDHVVGAKLSDIIMAPFNGFKDAIEINIFILVLGGFLNIVTQTGALEAGIQSVVKKLKGNELKIIPILMILFSIGGSTYGMAEETIPFYGLLSATMVAAGFDTFVAVGTVLLGAGSGVIGSTVNPFSTGVAMDALRGIGIQPNTGIILIVGAILWAASTSYSIFIVMRYAKKVKADKGSTILSLQEQEDMEKTYGQAASKEMPFTNRHKKILMVFAFCFVIMIVSLIPWNDFGVTIFKGWTSVLTGNSFGDWYFGDLAMWFFLLGIIAALIGRFTEKETIEAFIDGAKDMLSVVLIIVVARGASVLMSKTYLDSFILDKAAGLLQGLSPVLFVIGAFVLYLGLSFLIPSTSGLAYVSIPVMGALAKNIGLSPEVMVMIFASGCGLINLITPTSGVVMGGLEISKVQYATWTKFMAKPMIVLGLINLIILIGAMLLFS”, the protein production entry was “failed”.

As to “MTTPSASTRAVLEEACLSVGLDTTNAQPIRIAENAVWRLPGGVVVRVARPGQSAAAAREVQVARWLTAEGVPAVRALDLPQPVAASGHPVTFWQELPPHEIGTVTDVVVLLKQLHALPKPDLPLGELDPFVRLVERIDAAITISDDDQLWLKHRLEDLKQQWASRPKGLPECVVHGDAWVGNVARTEAGPMLLDFERASFGPPEWDLVSTAVKLTTTGAVSAEEYAAFCETYGVDVTEWEGYELLANARELRMVTYAAQHAASRPEWRREAQYRIDCLRGRAGAPPWRWKGII”, the protein production result is recorded as “failed”.

For the sequence “MKLAMKLRTRLFLSISALITVALLGLLLGLVSVMQMARTQESLIQHNFAILDLGLKLRQNLGDQLVLMTGATRNPPELEKIQRQFEELLEEASAQDTQEDVRNGLEGTWVDYRRFIDALKQFGTDPRGIRGNPQLSESFDSLRNGLLNVHRKALENISSAEINSRDRALWIAGLLGLVGLAVLCIGFVTAHGIARRFGAPIEALAKAADRIGEGDYEVTLPISSAAEMNLLTRRFGIMAEALRQHQATNVDELLAGQQRLQAVLDSIDDGLLMIDRQGHLEHLNPVAQRQLGWDESRLGQSLGEALSRPELDEQLHLVLRGGTLERAPEDLAIDIDGESRLLTYSMTPVSHTKGHILGAVMVLHDVTEQRAFERVRSEFVLRASHELRTPVTGMHMAFGLLQERLHFAPESREADLLNTVTEEMQRLMQLINDLLNFSRYQNGLQKLKLAPCSIETLLEEARARYEGQAQEQEIVLMLDIQEPMPRLHADQSQLERVLDNLLDNALRHTPPNGLIRLQARRHGERAIISVEDNGEGIAYGQQGRIFEPFVQVGRKKGGAGLGLALCKEIVQLHGGRMGVYSRPGQGTQFYMALLL”, the protein production entry is given as “failed”.

With “MTSGSRWDGIIPHPGILAFAMALYLLGFVLDASGRPLAYGFLTGDMVVHFFTFPGLREQFIDYLLATAFWIFISNITQVTVFIFSLATFYPVLKIFVLAGALLHNLLVGWGVRGLLIYAGTLHLHLEVTGCLLSLQAALVFVRSLLGTIQHRSRGPLVTALRENLAYLIPLIILLFAIAAILEVFWSTWWVYNLTHGPVSWRYFYTHVFSVEL”, the protein production entry is recorded as “failed”.

For “MTDVEKPVDNSGTLIDDILSPLKGVNEDLNVLVLGGDKVNNNTDTMMLVNFKPSTSKVSILSIPRDTKVKINGKKAKINSAYPTGGGELAVQTVSELFGIDVKYYVFVDTSSFRKIIDILGGVDYYVPVDMDYDDPLQGLSIHIKKGQHHFDGAMAEKFMRFRQYNNGRVNEYYDGSDLKRIDAQQNFIRELVRQKLNIFYLTKVDDIASTIFSNIDTNLNMSEVLKLTGSVSKVQADSINMLKVPGKSVLDGAWYYVIDSQETDKIINEYFRTRYKLEHHHHHH”, the protein production result is “not failed”.

In the case of “MLKNLRIRKFEPEEEYVHFTYSIKNSEREKSKELIKEYRTLLQKAIDYLWNLTKIQVRKKNGSYKITLPKKKEVYKPLREELEKINHLASHYVDKAINDAFSILKSWRKRAIKGRASIEKPTLKKAYVRIKTTLRKVVGESVRITVRPYEYITFSWSKSWFSRRVRELELGEPIIKEEKVYLPFRYKLPWVTPVNFLAIDSNLYTLDAYDGEKFVTISLKQLYSLKYSMEVKRAKVQSFASKHTKRGRELMRKYSHRERNRVLDFVHKFVNTLLDLYPMTFFAVEKLNKESMFKDANGSLSRKISRTVWRSIHRVLKYKAPLYGSFVKEVNPHLTSRSCPRCGFVSRKVGKTFECERCGFKLDRQLNASLNIYLKMCGFPHIRDIPRVWVGVIPLMGRRGMNVRDFGEAQGLRIDIKYHEILLEHHHHHH”, the protein production entry is “failed”.

Take “REIADNTYIVLGTMTLNDFNEYFETDLESDNVDTIAGFYLTGVGTIPSQEEKEHFEVESNGKHLELINDKVKDGRVTKLKILVSE”: the protein production entry is given as “not failed”.

Regarding “MKTTIAAALQQYFLNDNTACYVLTGDNYPHRIPMRNDEERLNVYNESGEDGLRGYLGTPKEIDFDRINKELSEFKAGKDIIEIKHMGREDGDISYDETDFTGIKVLILEWTHGGSEYLKGVDIPVFLESSPEETKARRIKRGRDENAASPFICRVVELEQEKLDLQGKNARIVVGKDGKVYEQLEHHHHHH”, the protein production entry was “failed”.

Take “MGHHHHHHSHMTLRCLEPSGNGGEGTRSQWGTAGSAEEPSPQAARLAKALRELGQTGWYWGSMTVNEAKEKLKEAPEGTFLIRDSSHSDYLLTISVKTSAGPTNLRIEYQDGKFRLDSIICVKSKLKQFDSVVHLIDYYVQMCKDKRTGPEAPRNGTVHLYLTKPLYTSAPSLQHLCRLTINKCTGAIWGLPLPTRLKDYLEEYKFQV”: the protein production entry is reported as “failed”.

These data come from a protein production outcome set (Wang et al. 2014).
